Data from paper PMC6213131, “Characterization of Properties and Transglycosylation Abilities of Recombinant α-Galactosidase from Cold-Adapted Marine Bacterium Pseudoalteromonas KMM 701 and Its C494N and D451A Mutants” (Marine Drugs, 2018).

Substrate: O=[N+]([O-])c1ccc(O[C@H]2O[C@H](CO)[C@H](O)[C@H](O)[C@H]2O)cc1
Experiment: purified protein
Type: biochemical, Pseudoalteromonas sp. KMM 701
Settings: sodium phosphate (0.05 M in table footnote, 0.1 M in methods), pH 7.0, 20 °C

B1: α-PsGal (Pseudoalteromonas sp. KMM 701) (protein)
chain: MADTKSFYRLDSVNSTVIFDCQSKTPALLYFGKRLSEQTTETMLTQLATRQEVKCAVVEEAPISLSPLLGEGFTGAPGLELVNDSIAWSVGPELQEVRQPSSATVEFVSVDKLRGIEVVHSITLDNNSDVLSAHTVLTNLGDSPLSVNFCAAPTFQLPDSVSKIVSFEGRWSNEFQRQSVDLVLGSFVRENRKGKTSHDVFPGLLVHNENAGEQHGECYGFHLGWSGNNKLRAELLAEGRRYVQMGELLLPGELTLAKGQTYQSPSIYGSFSSEGFSALSRNFHRFVKANLLSQAQREKARPVHYNTWEGIYFDHDVDTLKQLADKVAPLGIERFVLDDGWFKGRRGDNAGLGDWTVDYKIYPDGLSPVIDHVNSLGMEFGIWFEPEMVNPDSDLYRAHPDWVLGSENNEQLSFRNQLVLDLTRSEVVEYLYKAIDDILVEYPTIKYIKWDMNRDINHAGNFDGKPAVHQQTLALYRLIDRIKAAHPGLEIESCSSGGARVDYGVLAHTDRVWTSDSNDALDRLEIQRGCSFFFPSSVMGAHVGPRDCHITGRNVSIEMRAAVSMFGHMGIEMDPRELNDHEYNALKAAIALHKEHREFIHSADLYRLDSDDLSINFGLIDAQKTKALFAYNSVRETPRTAPNKLRFVGLDADAQYTLNLVWPVKFEEYRPSSIAAVNGQTFTGEALMQFGLQMPISFPQTSLIFELNKA
notes: mature ca. 80 kDa; E. coli Rosetta (DE3); GH36
  Km: 400 ± 30 µM
  Vmax: 320 µM/min
  kcat: 324 ± 3.5 s⁻¹
  kcat/Km: 820000 M⁻¹ s⁻¹

B2: α-PsGal (Pseudoalteromonas sp. KMM 701; C494N) (protein)
chain: MADTKSFYRLDSVNSTVIFDCQSKTPALLYFGKRLSEQTTETMLTQLATRQEVKCAVVEEAPISLSPLLGEGFTGAPGLELVNDSIAWSVGPELQEVRQPSSATVEFVSVDKLRGIEVVHSITLDNNSDVLSAHTVLTNLGDSPLSVNFCAAPTFQLPDSVSKIVSFEGRWSNEFQRQSVDLVLGSFVRENRKGKTSHDVFPGLLVHNENAGEQHGECYGFHLGWSGNNKLRAELLAEGRRYVQMGELLLPGELTLAKGQTYQSPSIYGSFSSEGFSALSRNFHRFVKANLLSQAQREKARPVHYNTWEGIYFDHDVDTLKQLADKVAPLGIERFVLDDGWFKGRRGDNAGLGDWTVDYKIYPDGLSPVIDHVNSLGMEFGIWFEPEMVNPDSDLYRAHPDWVLGSENNEQLSFRNQLVLDLTRSEVVEYLYKAIDDILVEYPTIKYIKWDMNRDINHAGNFDGKPAVHQQTLALYRLIDRIKAAHPGLEIESNSSGGARVDYGVLAHTDRVWTSDSNDALDRLEIQRGCSFFFPSSVMGAHVGPRDCHITGRNVSIEMRAAVSMFGHMGIEMDPRELNDHEYNALKAAIALHKEHREFIHSADLYRLDSDDLSINFGLIDAQKTKALFAYNSVRETPRTAPNKLRFVGLDADAQYTLNLVWPVKFEEYRPSSIAAVNGQTFTGEALMQFGLQMPISFPQTSLIFELNKA
notes: as for B1
  Km: 300 ± 5 µM
  Vmax: 24 µM/min
